Experimental data as given in article PMC3581365 (The Journal of Biological Chemistry, 2013).

What was measured:
[1] = molecular target: T1, HP0892 fused with His tag at the C terminus (HP0892-His) (H. pylori 26695, UniProt O25552 1-90); assay: NMR titration
T1 sequence: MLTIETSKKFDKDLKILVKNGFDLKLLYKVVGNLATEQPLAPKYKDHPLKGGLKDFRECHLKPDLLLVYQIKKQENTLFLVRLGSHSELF

[2] = molecular target: T2, HP0893 expressed as a C-terminal His tag fusion (HP0893-His) (H. pylori 26695, UniProt O25553 1-95); assay: pull-down
T2 sequence (looked up): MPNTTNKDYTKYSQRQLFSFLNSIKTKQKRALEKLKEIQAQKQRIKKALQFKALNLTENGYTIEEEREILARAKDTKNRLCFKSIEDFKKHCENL

B1: HP0893Ctp, 30-residue peptide corresponding to the C-terminal region (Glu-66 to Leu-95) of HP0893 (peptide, UniProt O25553 66-95, looked up)
peptide: EREILARAKDTKNRLCFKSIEDFKKHCENL
- stoichiometry N [1]: 1

B2: HP0892 without any purification tag or non-native residues (natural protein, H. pylori 26695, UniProt O25552 1-90, looked up)
chain: T1 sequence
- stoichiometry N [2]: 1
